From patent US20260055155A1, “INCRETIN ANALOG AND USE THEREOF” (SHANGHAI MINWEI BIOTECHNOLOGY CO., LTD, priority 2023, published 2026)
Entries after “also recorded” stand apart in the source; their conditions may differ. Each block holds one molecule with its values, some of them ahead of it. Numbered stars: 1 amine (or outer) side, 2 acyl side, 3 side chain; on linkers, the order of the positions; unused ones are H or OH. Square brackets hold non-standard residues; d marks the D form. Side chains are listed from the residue outwards. Peptide text beside a SMILES is read from it. * marks the point of attachment. C20 diacid = O=C(O)CCCCCCCCCCCCCCCCCCC(=O)*; γGlu = O=C(O)[C@H](CCC(=O)[*:2])N[*:1]; AEEA = NCCOCCOCC(=O)O; Aib = CC(C)(N)C(=O)O

Assays:
GIP receptor (human) = target: T1, GIP receptor (human) (UniProt P48546); test: cell-based or functional assay
T1 sequence (looked up): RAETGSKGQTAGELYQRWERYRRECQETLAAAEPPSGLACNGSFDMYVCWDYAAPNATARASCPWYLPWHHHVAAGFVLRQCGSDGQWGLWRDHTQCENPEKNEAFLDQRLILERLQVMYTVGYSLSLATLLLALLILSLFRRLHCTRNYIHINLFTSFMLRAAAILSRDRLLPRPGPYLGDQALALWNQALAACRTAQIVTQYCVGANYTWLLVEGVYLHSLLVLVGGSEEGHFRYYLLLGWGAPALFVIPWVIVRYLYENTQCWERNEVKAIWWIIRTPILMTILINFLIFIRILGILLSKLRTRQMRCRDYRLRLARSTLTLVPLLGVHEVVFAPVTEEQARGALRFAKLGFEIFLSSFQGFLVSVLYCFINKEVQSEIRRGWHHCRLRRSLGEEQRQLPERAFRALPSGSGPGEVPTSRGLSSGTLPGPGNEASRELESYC

[1] = stability of polypeptide in serum (GIP activity read-out with CHOK1-GIPR cells); type: in vitro ADME, cynomolgus monkey; settings: for Activity ratio (%, Relative to the sample at 0 h): 100 μg/ml in cynomolgus monkey serum, GIP activity
Method: Polypeptide 1 (SEQ ID NO. 1), polypeptide 3 (SEQ ID NO. 3) and control LY3437943 were diluted to 100 μg/ml with cynomolgus monkey serum, divided into 3 pieces with 200 μl/piece, respectively. One sample was placed in a −80° C. refrigerator as a zero reference, and the other two samples were placed in a 37° C. incubator and moved into a −80° C. refrigerator after 24 hours and 72 hours respectively. […] The activity changes of different samples after being placed for different periods of time were compared.

[2] = target: human GLP-1 receptor (human) (UniProt P43220); test: cell-based or functional assay
GCG receptor = GCG receptor (UniProt P47871); test: cell-based or functional assay

EC50 (nmol/L), reporter gene in CHO-K1 cells (GIP receptor (human)): 0.059 nmol/L
Molecule: GIP (from UniProt P09681 52-93) (ligand)

Molecule: CC[C@H](C)[C@H](NC(=O)[C@H](CCCCNC(=O)COCCOCCNC(=O)CC[C@H](NC(=O)CCCCCCCCCCCCCCCCCCC(=O)O)C(=O)O)NC(=O)[C@H](CC(=O)O)NC(=O)[C@H](CC(C)C)NC(=O)[C@H](CC(C)C)NC(=O)[C@@H](NC(=O)[C@H](CO)NC(=O)[C@H](Cc1ccc(O)cc1)NC(=O)[C@H](CC(=O)O)NC(=O)[C@H](CO)NC(=O)[C@@H](NC(=O)[C@H](Cc1ccccc1)NC(=O)[C@@H](NC(=O)CNC(=O)[C@H](CCC(N)=O)NC(=O)C(C)(C)NC(=O)[C@@H](N)Cc1c[nH]cn1)[C@@H](C)O)[C@@H](C)O)[C@@H](C)CC)C(=O)N[C@@H](C)C(=O)N[C@@H](C)C(=O)N[C@@H](CCC(N)=O)C(=O)N[C@@H](C)C(=O)N[C@@H](Cc1ccccc1)C(=O)N[C@H](C(=O)N[C@@H](CCC(=O)O)C(=O)N[C@@H](Cc1c[nH]c2ccccc12)C(=O)N[C@@H](CC(C)C)C(=O)N[C@H](C(=O)N[C@@H](C)C(=O)NCC(=O)NCC(=O)N1CCC[C@H]1C(=O)N[C@@H](CO)C(=O)N[C@@H](CO)C(=O)NCC(=O)N[C@@H](C)C(=O)N1CCC[C@H]1C(=O)N1CCC[C@H]1C(=O)N1CCC[C@H]1C(=O)N[C@@H](CO)C(N)=O)[C@@H](C)CC)[C@@H](C)CC [Polypeptide 1] (H-H[Aib]QGTFTSDYSILLDK([AEEA-γGlu-C20 diacid])IAAQAFIEWLIAGGPSSGAPPPS-NH2; N-terminus and C-terminus assumed)
stability in serum (in words) ([1]; cynomolgus monkey serum, 37° C.): higher than that of polypeptide 3; also recorded: significantly improve polypeptide stability
Activity ratio (%, Relative to the sample at 0 h) ([1]; incubation time at 37° C. 0 h (zero reference)): 100%
Activity ratio (%, Relative to the sample at 0 h) ([1]; incubation time at 37° C. 72 h): 67.13%

EC50 (nmol/L), CRE-luciferase reporter in CHO-K1 cells [2]: 1.95 nmol/L
Molecule: GLP-1 (from UniProt P01275 92-128) (ligand)

Results of activity in human serum albumin system (GCGR) (GCG receptor): 26
Results of activity in human serum albumin system (GIPR) (GIP receptor (human)): 3.29
Results of activity in human serum albumin system (GLP-1R) [2]: 540
Molecule: LY3437943 (peptide)
